Assay results from patent US12351616B2, “Peptides and combination of peptides for use in immunotherapy against esophageal cancer and other cancers” (Immatics Biotechnologies GmbH, priority 2015, dated 2025).

Target: HLA-A*02:01 (Homo sapiens, UniProt P04439, D140Y/D185E/D98H/E176V/E277Q/G131W/G231S/I119V/I121R/I166T/I218V/L300P/L318F/N151K/N90K/P208A/P217A/Q86G/Q94H/R138H/R169H/T345S)
Experiment: MHC binding assay: UV-ligand exchange with β2m ELISA
Conditions: peptide exchange yield, binding to HLA-A*02:01
Text: Candidate peptides for T cell based therapies according to the present invention were further tested for their MHC binding capacity (affinity). The individual peptide-MHC complexes were produced by UV-ligand exchange, where a UV-sensitive peptide is cleaved upon UV-irradiation, and exchanged with the peptide of interest as analyzed. Only peptide candidates that can effectively bind and stabilize the peptide-receptive MHC molecules prevent dissociation of the MHC complexes. To determine the yield of the exchange reaction, an ELISA was performed based on the detection of the light chain (β2m) of stabilized MHC complexes. The assay was performed as generally described in Rodenko et al. (Rodenko et al., 2006).
96 well MAXISorp plates (NUNC) were coated over night with 2 ug/ml streptavidin in PBS at room temperature, washed 4× and blocked for 1 h at 37° C. in 2% BSA containing blocking buffer. Refolded HLA-A*02:01/MLA-001 monomers served as standards, covering the range of 15-500 ng/ml. Peptide-MHC monomers of the UV-exchange reaction were diluted 100 fold in blocking buffer. Samples were incubated for 1 h at 37° C., washed four times, incubated with 2 ug/ml HRP conjugated anti-β2m for 1 h at 37° C., washed again and detected with TMB solution that is stopped with […]. Absorption was measured at 450 nm. Candidate peptides that show a high exchange yield (preferably higher than 50%, most preferred higher than 75%) are generally preferred for a generation and production of antibodies or fragments thereof, and/or T cell receptors or fragments thereof, as they show sufficient avidity to the MHC molecules and prevent dissociation of the MHC complexes.

Peptide exchange | Substance
+++ (≥50 = +++) | 71 (ASDPILYRPVAV; listed as Homo sapiens) [compound 71]
+++ (≥50 = +++) | 44 (ATGNDRKEAAENSL; listed as Homo sapiens) [compound 44]
++ (≥20% = ++) | 36 (FLLRFSQDNA; listed as Homo sapiens) [compound 36]
++ (≥20% = ++) | 56 (ALVEVTEHV; listed as Homo sapiens) [compound 56]
++++ (≥75% = ++++) | 13 (SLSPVILGV; listed as Homo sapiens) [compound 13]
+++ (≥50 = +++) | 9 (HLIAEIHTA; listed as Homo sapiens) [compound 9]
+++ (≥50 = +++) | 90 (SIYEYYHAL; listed as Homo sapiens) [compound 90]
+++ (≥50 = +++) | 33 (GLDVTSLRPFDL; listed as Homo sapiens) [compound 33]
+ (≥10% = +) | 26 (MLAEKLLQA; listed as Homo sapiens) [compound 26]
++++ (≥75% = ++++) | 91 (KLIDDVHRL; listed as Homo sapiens) [compound 91]
++ (≥20% = ++) | 48 (SMHQMLDQTL; listed as Homo sapiens) [compound 48]
+++ (≥50 = +++) | 11 (ALWLPTDSATV; listed as Homo sapiens) [compound 11]
++ (≥20% = ++) | 52 (VAIGGVDGNVRL; listed as Homo sapiens) [compound 52]
+++ (≥50 = +++) | 93 (VLINTSVTL; listed as Homo sapiens) [compound 93]
+ (≥10% = +) | 30 (SLNGNQVTV; listed as Homo sapiens) [compound 30]
++ (≥20% = ++) | 53 (VVVTGLTLV; listed as Homo sapiens) [compound 53]
+++ (≥50 = +++) | 23 (KLSDSATYL; listed as Homo sapiens) [compound 23]
+++ (≥50 = +++) | 18 (FLLDQVQLGL; listed as Homo sapiens) [compound 18]
++ (≥20% = ++) | 40 (GLAFSLYQA; listed as Homo sapiens) [compound 40]
+++ (≥50 = +++) | 57 (GLAPNTPGKA; listed as Homo sapiens) [compound 57]
+++ (≥50 = +++) | 87 (FLDNGPKTI; listed as Homo sapiens) [compound 87]
+++ (≥50 = +++) | 22 (KLNDTYVNV; listed as Homo sapiens) [compound 22]
++ (≥20% = ++) | 78 (KVANIIAEV; listed as Homo sapiens) [compound 78]
++ (≥20% = ++) | 17 (MISRTPEV; listed as Homo sapiens) [compound 17]
++ (≥20% = ++) | 45 (MLTELEKAL; listed as Homo sapiens) [compound 45]

Peptide exchange | Substance
++ (≥20% = ++) | 31 (VLPKLYVKL; listed as Homo sapiens) [compound 31]
+++ (≥50 = +++) | 16 (VLAEGGEGV; listed as Homo sapiens) [compound 16]
++++ (≥75% = ++++) | 85 (NIIELVHQV; listed as Homo sapiens) [compound 85]
+++ (≥50 = +++) | 81 (AVLPHVDQV; listed as Homo sapiens) [compound 81]
+++ (≥50 = +++) | 54 (YQDLLNVKM; listed as Homo sapiens) [compound 54]
+ (≥10% = +) | 43 (KVVGKDYLL; listed as Homo sapiens) [compound 43]
++ (≥20% = ++) | 60 (VVMEELLKV; listed as Homo sapiens) [compound 60]
+++ (≥50 = +++) | 10 (SLDENSDQQV; listed as Homo sapiens) [compound 10]
+++ (≥50 = +++) | 82 (HLLGHLEQA; listed as Homo sapiens) [compound 82]
+++ (≥50 = +++) | 49 (GLMKDIVGA; listed as Homo sapiens) [compound 49]
++ (≥20% = ++) | 58 (LILESIPVV; listed as Homo sapiens) [compound 58]
++ (≥20% = ++) | 55 (GAIDLLHNV; listed as Homo sapiens) [compound 55]
+++ (≥50 = +++) | 74 (ILASLATSV; listed as Homo sapiens) [compound 74]
+++ (≥50 = +++) | 25 (LLPPPPPPA; listed as Homo sapiens) [compound 25]
++ (≥20% = ++) | 7 (SIFEGLLSGV; listed as Homo sapiens) [compound 7]
++ (≥20% = ++) | 28 (SLDGFTIQV; listed as Homo sapiens) [compound 28]
+++ (≥50 = +++) | 73 (KITEAIQYV; listed as Homo sapiens) [compound 73]
++ (≥20% = ++) | 24 (LLFAGTMTV; listed as Homo sapiens) [compound 24]
++ (≥20% = ++) | 72 (FLPPAQVTV; listed as Homo sapiens) [compound 72]
+++ (≥50 = +++) | 34 (SLVSEQLEPA; listed as Homo sapiens) [compound 34]
++ (≥20% = ++) | 32 (YMLDIFHEV; listed as Homo sapiens) [compound 32]
+++ (≥50 = +++) | 83 (ALADGVVSQA; listed as Homo sapiens) [compound 83]
++ (≥20% = ++) | 62 (ALYEYQPLQI; listed as Homo sapiens) [compound 62]
++ (≥20% = ++) | 41 (GLESEELEPEEL; listed as Homo sapiens) [compound 41]
++ (≥20% = ++) | 39 (LVRDTQSGSL; listed as Homo sapiens) [compound 39]

Peptide exchange | Substance
+++ (≥50 = +++) | 63 (LAYTLGVKQL; listed as Homo sapiens) [compound 63]
++ (≥20% = ++) | 51 (KLFGHLTSA; listed as Homo sapiens) [compound 51]
+++ (≥50 = +++) | 37 (YTQPFSHYGQAL; listed as Homo sapiens) [compound 37]
+++ (≥50 = +++) | 70 (FVLDTSESV; listed as Homo sapiens) [compound 70]
++++ (≥75% = ++++) | 14 (RLPNAGTQV; listed as Homo sapiens) [compound 14]
+++ (≥50 = +++) | 21 (IVREFLTAL; listed as Homo sapiens) [compound 21]
+ (≥10% = +) | 15 (LLANGVYAA; listed as Homo sapiens) [compound 15]
+++ (≥50 = +++) | 8 (ALLDGGSEAYWRV; listed as Homo sapiens) [compound 8]
+++ (≥50 = +++) | 35 (LLRFSQDNA; listed as Homo sapiens) [compound 35]
++ (≥20% = ++) | 80 (ALQEALENA; listed as Homo sapiens) [compound 80]
++ (≥20% = ++) | 67 (SMNGGVFAV; listed as Homo sapiens) [compound 67]
+++ (≥50 = +++) | 38 (IAAIRGFLV; listed as Homo sapiens) [compound 38]
++++ (≥75% = ++++) | 64 (GLTDVIRDV; listed as Homo sapiens) [compound 64]
+++ (≥50 = +++) | 66 (LLDEKVQSV; listed as Homo sapiens) [compound 66]
+++ (≥50 = +++) | 84 (SLAESLDQA; listed as Homo sapiens) [compound 84]
+++ (≥50 = +++) | 59 (SLLDTLREV; listed as Homo sapiens) [compound 59]
++ (≥20% = ++) | 79 (GQDVGRYQV; listed as Homo sapiens) [compound 79]
+ (≥10% = +) | 42 (TQTAVITRI; listed as Homo sapiens) [compound 42]
++ (≥20% = ++) | 89 (SLADSLYNL; listed as Homo sapiens) [compound 89]
+++ (≥50 = +++) | 65 (YVVGGFLYQRL; listed as Homo sapiens) [compound 65]
+++ (≥50 = +++) | 46 (YTAQIGADIAL; listed as Homo sapiens) [compound 46]
++ (≥20% = ++) | 92 (SILRHVAEV; listed as Homo sapiens) [compound 92]
+++ (≥50 = +++) | 61 (TQTTHELTI; listed as Homo sapiens) [compound 61]
+++ (≥50 = +++) | 3 (TASAITPSV; listed as Homo sapiens) [compound 3]
